Measured values published in PMC314469, “Protein Interaction Networks by Proteome Peptide Scanning” (PLoS Biology, 2004).

T1: amphyphisin SH3 (AMPH_HUMAN), P49418
T1 chain: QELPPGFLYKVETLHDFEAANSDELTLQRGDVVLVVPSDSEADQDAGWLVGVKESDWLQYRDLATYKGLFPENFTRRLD


Legend:
[1] = biological target: T1, amphyphisin SH3 (AMPH_HUMAN), P49418; assay: SPOT array
[2] = biological target: endophilin SH3 (SH3G2_HUMAN), Q99962; assay: SPOT array

normalised SPOT signal, Boehringer light units (BLU); mean over the file's lines of this peptide [1] | normalised SPOT signal, Boehringer light units (BLU); mean over the file's lines of this peptide [2] | Binder
1320 | 89.5 | TRESIVRPSRRGGI [Q14333 228-241]
64 | 346 | TWQGLRRPPSVLGH [Q9C094 1911-1924]
-0 | 4.2 | TSPAPHRPPKRVKA [Q9NRC7 337-350]
24.7 | 4930 | TTPPPGRPPAPSSE [Q96KN1 287-301]
71 | 1100 | SFHSPRRPYASPLL [P57073 407-420]
89.1 | 54.1 | TRSVLKRPERSQEE [P30304 268-281]
440 | 216 | TREALSRPARTAPL [Q13424 330-343]
177 | 123 | TRRVLLRPEKRPPV [P34969 436-449]
913 | 8360 | TRGRPTRPPTRPPT [Q96F98 1-15]
31.3 | 196 | TYQHLRRPRGLSSL [O60721 37-50]
118 | 150 | TTKVIRRPRRGRMG [O75334 571-584]
363 | 7730 | TRWPPSRPPPPSPF [Q9NP08 321-335]
5540 | 14100 | TSAPPSRPPPPRAT [Q9UKN4 408-422]
31.6 | 0 | SGATLKRPMEFEAA [Q9H9L7 3-16]
56.7 | 54.7 | TSPTFRRPKTLRLR [P29316 42-55]
0 | 324 | TRKELERPIKVPVV [P82251 399-412]
1000 | 913 | TRYSPYRPYRSVHQ [O60281 946-959]
57.4 | 67.6 | TSGSFRRPESPRPR [O15054 552-565]
2180 | 534 | TRYMFSRPFRKHGV [P46778 10-23]
568 | 96.3 | TRTDPTRPIRTPVI [Q9ULT9 312-325]
42.1 | 61.6 | AAVTLKRPPPYQWD [Q9NRJ4 1113-1126]

normalised SPOT signal, Boehringer light units (BLU); mean over the file's lines of this peptide [1] | normalised SPOT signal, Boehringer light units (BLU); mean over the file's lines of this peptide [2] | Binder
36.5 | 684 | TSWMPRRPSSPLKE [Q9H2L5 83-96]
38 | 138 | TRVQPRRPTKGTHR [Q96EK0 35-48]
90.5 | 451 | TRPKPLKPPSDLSM [P33121 45-59]
3160 | 11100 | TTRRPPRPPGSSRK [Q9C0H3 154-168]
33.9 | 26.8 | TSLSLRRPPGPASQ [Q15477 130-143]
78.8 | 1190 | TQSLPTRPPTFPPT [Q05707 817-831]
25.3 | 60.8 | TVNLFKRPLPKSKP [Q9UNP7 5-18]
29.4 | 16.2 | TTVLIRRPDLRYQL [Q02410 746-759]
1400 | 13300 | TRSPPPRPPPPAIN [Q9BQL3 97-111]
32.4 | 210 | TSFEPRRPPPLRPG [Q9P2S2 1586-1599]
34.9 | 806 | TTVRPAKPPVVDRS [O95630 222-236]
46.7 | 2280 | TRKGPKRPQQPNPP [Q16632 107-120]
1740 | 2500 | SGGRPARPDRGPEP [Q92914 53-66]
567 | 8780 | TRPPPIRPPFSHPL [P58840 117-131]
220 | 4010 | TSPAPHRPPKRGPL [Q9UQD1 353-366]
161 | 186 | TSVPLARPLRTSEE [O94942 425-438]
804 | 10400 | TRPPPIRPPFSHPI [P10323 306-320]
4.8 | 68.1 | TRDDPYRPAKPVPT [O14730 137-150]
54 | 647 | TTTPPTKPPSFNLH [Q99966 72-86]
84.9 | 138 | TSAVLRRPQKGRLA [Q13135 548-561]
30.1 | 74.4 | TTVLIKRPDLKYQL [Q99767 658-671]
